Results as given in paper PMC10248553 (The Journal of Biological Chemistry, 2023).
Where no end group is shown, it is not given here.

B1: SPRED2 (104–181) (domain or fragment)
chain: SPADARAFDRGVRKAIEDLIEGSTTSSSTIHNEAELGDDDVFTTATDSSSNSSQKREQPTRTISSPTSCEHRRIYTLG
B2: SPRED2 (140–151) peptide (peptide)
peptide: Ac-GDDDVFTTATDS
B3: SPRED2 (138–153) peptide (peptide)
peptide: Ac-ELGDDDVFTTATDSSS
B4: SPRED2 (131–160) peptide (peptide)
peptide: Ac-STIHNEAELGDDDVFTTATDSSSNSSQKRE
B5: SPRED2 (11–181) (domain or fragment)
chain: SYIVRVKAVVMTRDDSSGGWFPQEGGGISRVGVCKVMHPEGNGRSGFLIHGERQKDKLVVLECYVRKDLVYTKANPTFHHWKVDNRKFGLTFQSPADARAFDRGVRKAIEDLIEGSTTSSSTIHNEAELGDDDVFTTATDSSSNSSQKREQPTRTISSPTSCEHRRIYTLG

Assays:
[1] = molecular target: RSK2 (44–367) (human, UniProt P51812 44-367); assay: ITC
[2] = molecular target: RSK2 (46–346) (human, UniProt P51812 46-346); assay: crystal structure

Row | Kd [1] | binding result [1] | binding result [2] | Binder
1 | ~9 µM |  |  | B1
2 | 36 µM |  |  | B2
3 | 20 µM |  |  | B3
4 |  | binds | binds | B4
5 |  | binds |  | B5
